This is an account of results in article PMC3077374.

Among the targets are human IgM (human); human IgA (human); human IgG (human).
Assay in all cases: SPR; Biacore 3000; hIgG, hIgM or hIgA amine-coupled to CM-5 chips (10 mM sodium acetate, pH 5.0, 4.5 or 4.0); LD5 or SpA as analyte in serial 1:2 dilutions from 1.25 and 0.8 uM; flow 40 ul/min; NaCl/HEPES with 0.005% surfactant P20; regeneration 100 mM alanine-HCl pH 2.5

Regarding “staphylococcal protein A (SpA) (from UniProt P02976 37-485) (natural protein)”, in the assay with human IgM (human), the Kd is 7.15 nM, the koff is 0.000817 s⁻¹ and the kon is 115000 M⁻¹ s⁻¹. In the assay with human IgA (human), this substance returned a Kd of 7.03 nM, a koff of 0.00292 s⁻¹ and a kon of 416000 M⁻¹ s⁻¹. In the assay with human IgG (human), this substance showed a Ka of 3.45e+09 M⁻¹, a Kd of 0.29 nM, a koff of 4.4e-05 s⁻¹ and a kon of 154000 M⁻¹ s⁻¹.
